Test results: patent US20210261937

What was measured:
[1] = molecular target: bdSUMO Mut13-MBP fusion protein
[2] = molecular target: bdSUMO Mut10-MBP fusion protein
[3] = molecular target: bdSUMO Mut12-MBP fusion protein
[4] = molecular target: hsSUMO2-MBP fusion protein
[5] = molecular target: scSUMO-MBP fusion protein
[6] = molecular target: bdSUMO Mut11-MBP fusion protein
[7] = molecular target: bdSUMO Mut15-MBP fusion protein
[8] = molecular target: hsSUMO2-MBP fusion protein with the bdSUMO^Mut11 exchanges
[9] = molecular target: bdSUMO Mut8-MBP fusion protein
[10] = molecular target: bdSUMO-MBP fusion protein
[11] = molecular target: bdSUMO D67K-MBP fusion protein
[12] = molecular target: scSUMO-MBP fusion protein with the bdSUMO^Mut11 exchanges
[13] = molecular target: bdSUMO Mut14-MBP fusion protein
[14] = molecular target: scSUMO-MBP fusion protein with the bdSUMO^Mut1 exchanges
[15] = molecular target: hsSUMO2-MBP fusion protein with the bdSUMO^Mut1 exchanges
[16] = molecular target: bdSUMO^Mut1-MBP fusion protein

B1: SUMOstar protease (protein)
chain: LVPELNEKDDDQVQKALASRENTQLMNRDNIEITVRDFKTLAPRRWLNSGIISFFMKYIEKSTPNTVAFNSFFYTNLSERGYQGVRRWMKRKKTQIDKLDKIFTPINLNQSHWALGIIDLKKKTIGYVDSLSNGPNAMSFAILTDLQKYVMEESKHTIGEDFDLIHLDCPQQPNGYDCGIYVCMNTLYGSADAPLDFDYKDAIRMRRFIAHLILTDALK
For B1, the “cleavage of the SUMO fusion protein” value [1] was “resistant”, the “cleavage of the SUMO fusion protein” value [2] was “resistant” and the “cleavage of the SUMO fusion protein” value [3] was “resistant”. The cleavage of the SUMO fusion protein [4] was under 25 % cleavage, the “cleavage of 100 µM fusion, 1 h at 0 °C (FIG. 7)” value (SUMOstar-MBP fusion) was “SUMOstar protease only recognized SUMOstar-MBP” and the cleavage of the SUMO fusion protein [5] was 100 % cleavage. For the same protein, the “cleavage of the SUMO fusion protein” value [6] was “resistant”, the “cleavage of the SUMO fusion protein” value [7] was “resistant” and the “cleavage of SUMO-MBP fusion, 1 h at 25 °C (FIG. 14)” value (“cleavage of SUMO-MBP fusion, 1 h” for short) [8] was “allowed cleavage resistance against Ulp1, SUMOstar protease, hsSENP2 and bdSENP1”. For the same protein, the “cleavage of the SUMO fusion protein” value [9] was “resistant”, the cleavage of the SUMO fusion protein [10] was 100 % cleavage and the “cleavage of bdSUMO-MBP variants by 10 µM SUMOstar protease, 2 h at 25 °C (FIG. 5)” value [11] was “the D67K mutation alone was necessary and sufficient for blocking cleavage”. The “cleavage of the SUMO fusion protein” value [11] was “resistant”, the “cleavage of SUMO-MBP fusion, 1 h” value [12] was “allowed cleavage resistance against Ulp1, SUMOstar protease, hsSENP2 and bdSENP1” and the “cleavage of the SUMO fusion protein” value [13] was “resistant”. For the same protein, the “cleavage of SUMO-MBP fusion, 1 h” value [14] was “allowed cleavage resistance against Ulp1, SUMOstar protease, hsSENP2 and bdSENP1”, the “cleavage of SUMO-MBP fusion, 1 h” value [15] was “allowed cleavage resistance against Ulp1, SUMOstar protease, hsSENP2 and bdSENP1” and the “cleavage of 100 µM fusion, 1 h at 0 °C (FIG. 7)” value [16] was “left intact the bdSUMO^Mut1-MBP fusion protein even at the highest SUMOstar protease concentration of 10 µM”. The “cleavage of the SUMO fusion protein” value [16] was “resistant”.
